Legend:
Test in all cases: biochemical
Conditions in all cases: read-out: Percentages of residual activities of the kinase reaction
[1] = biological target: MNK1 (Homo sapiens, UniProt Q9BUB5)
Experimental: (§1) Selectivity testing (Table 2) was performed on the commercial basis at the Division of Signal Transduction Therapy, University of Dundee. ATP concentrations that were used in testing were close to the Km value of the kinase.

[2] = biological target: S6K1 (Homo sapiens, UniProt P23443)
Experimental: as §1

[3] = biological target: CHK2 (Homo sapiens, UniProt O96017)
Experimental: as §1

[4] = biological target: TBK1 (Homo sapiens, UniProt Q9UHD2)
Experimental: as §1

[5] = biological target: SRPK1 (Homo sapiens, UniProt Q96SB4)
Experimental: as §1

[6] = biological target: Src (Homo sapiens, UniProt P12931)
Sequence of Src (P12931 whole entry): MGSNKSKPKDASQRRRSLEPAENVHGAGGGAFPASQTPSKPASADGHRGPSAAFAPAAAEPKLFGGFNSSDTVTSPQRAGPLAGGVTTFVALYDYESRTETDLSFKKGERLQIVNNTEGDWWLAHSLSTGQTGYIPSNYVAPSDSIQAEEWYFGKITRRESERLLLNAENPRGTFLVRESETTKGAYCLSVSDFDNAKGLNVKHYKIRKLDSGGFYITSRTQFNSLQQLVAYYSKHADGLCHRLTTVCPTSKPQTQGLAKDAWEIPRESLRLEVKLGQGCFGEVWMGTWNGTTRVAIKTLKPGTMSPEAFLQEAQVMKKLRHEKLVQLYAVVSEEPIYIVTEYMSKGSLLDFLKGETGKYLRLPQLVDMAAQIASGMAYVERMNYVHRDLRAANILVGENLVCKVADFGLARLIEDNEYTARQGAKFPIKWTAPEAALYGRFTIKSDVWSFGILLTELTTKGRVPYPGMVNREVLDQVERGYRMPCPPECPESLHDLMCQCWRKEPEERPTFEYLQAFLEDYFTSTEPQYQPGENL
Experimental: as §1

[7] = biological target: PAK4 (Homo sapiens, UniProt O96013)
Experimental: as §1

[8] = biological target: CLK2 (Homo sapiens, UniProt P49760)
Experimental: as §1

[9] = biological target: DYRK3 (Homo sapiens, UniProt O43781)
Experimental: as §1

[10] = biological target: ASK1 (Homo sapiens, UniProt Q99683)
Sequence of ASK1 (Q99683 whole entry, species assumed): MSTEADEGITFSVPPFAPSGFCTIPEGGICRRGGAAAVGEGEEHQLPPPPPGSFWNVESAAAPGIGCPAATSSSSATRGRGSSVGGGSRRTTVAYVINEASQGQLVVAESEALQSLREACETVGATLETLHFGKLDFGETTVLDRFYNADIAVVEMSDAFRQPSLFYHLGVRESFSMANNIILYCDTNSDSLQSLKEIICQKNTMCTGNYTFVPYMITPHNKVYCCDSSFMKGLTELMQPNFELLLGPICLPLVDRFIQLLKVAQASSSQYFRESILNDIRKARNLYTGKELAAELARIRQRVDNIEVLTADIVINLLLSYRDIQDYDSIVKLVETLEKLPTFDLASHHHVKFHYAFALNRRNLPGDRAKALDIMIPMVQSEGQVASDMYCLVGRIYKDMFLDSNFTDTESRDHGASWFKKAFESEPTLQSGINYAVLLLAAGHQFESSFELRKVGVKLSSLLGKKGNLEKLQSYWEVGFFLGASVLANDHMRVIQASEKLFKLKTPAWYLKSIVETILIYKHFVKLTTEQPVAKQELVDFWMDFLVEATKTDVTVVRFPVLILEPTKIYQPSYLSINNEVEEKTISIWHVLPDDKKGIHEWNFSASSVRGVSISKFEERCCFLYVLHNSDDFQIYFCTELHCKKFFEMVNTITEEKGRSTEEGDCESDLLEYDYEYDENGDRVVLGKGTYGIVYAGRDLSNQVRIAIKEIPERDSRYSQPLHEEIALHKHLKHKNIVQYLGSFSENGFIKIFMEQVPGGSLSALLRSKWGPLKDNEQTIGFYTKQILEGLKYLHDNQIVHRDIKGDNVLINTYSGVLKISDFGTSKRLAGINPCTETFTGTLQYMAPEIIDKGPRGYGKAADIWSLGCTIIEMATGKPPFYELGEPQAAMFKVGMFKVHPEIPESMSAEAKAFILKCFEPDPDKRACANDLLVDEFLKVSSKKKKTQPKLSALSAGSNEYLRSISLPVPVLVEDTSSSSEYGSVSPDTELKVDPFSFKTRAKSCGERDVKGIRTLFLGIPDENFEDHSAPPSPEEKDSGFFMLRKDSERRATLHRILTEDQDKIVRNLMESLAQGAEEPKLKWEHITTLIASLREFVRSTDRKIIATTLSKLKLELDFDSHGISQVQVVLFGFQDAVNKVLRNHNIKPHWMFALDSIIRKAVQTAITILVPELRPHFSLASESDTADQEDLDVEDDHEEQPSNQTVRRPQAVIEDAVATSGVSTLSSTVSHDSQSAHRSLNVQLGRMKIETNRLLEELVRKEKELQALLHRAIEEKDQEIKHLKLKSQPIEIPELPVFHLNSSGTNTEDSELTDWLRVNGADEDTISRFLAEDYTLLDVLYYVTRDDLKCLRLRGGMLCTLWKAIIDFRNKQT
Experimental: as §1

[11] = biological target: ERK1 (Homo sapiens, UniProt P27361)
Experimental: as §1

[12] = biological target: ZAP70 (Homo sapiens, UniProt P43403)
Experimental: as §1

[13] = biological target: JNK3 (Homo sapiens, UniProt P53779)
Experimental: as §1

[14] = biological target: PDK1 (Homo sapiens, UniProt O15530)
Experimental: as §1

[15] = biological target: ERK2 (Homo sapiens, UniProt P28482)
Sequence of ERK2 (P28482 whole entry, species assumed): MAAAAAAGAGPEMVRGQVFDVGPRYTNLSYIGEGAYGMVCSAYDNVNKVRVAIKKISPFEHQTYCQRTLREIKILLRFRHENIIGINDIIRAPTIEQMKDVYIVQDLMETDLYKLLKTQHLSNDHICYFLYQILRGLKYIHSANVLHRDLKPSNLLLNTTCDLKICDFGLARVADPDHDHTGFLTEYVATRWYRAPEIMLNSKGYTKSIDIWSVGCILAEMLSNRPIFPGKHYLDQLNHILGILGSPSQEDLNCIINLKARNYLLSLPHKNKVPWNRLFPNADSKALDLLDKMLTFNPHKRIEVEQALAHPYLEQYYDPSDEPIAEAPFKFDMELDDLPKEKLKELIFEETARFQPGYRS
Experimental: as §1

[16] = biological target: PLK1 (Homo sapiens, UniProt P53350)
Experimental: as §1

[17] = biological target: MLK1 (Homo sapiens, UniProt P80192)
Experimental: as §1

[18] = biological target: CSK (Homo sapiens, UniProt P41240)
Experimental: as §1

[19] = biological target: PKD1 (Homo sapiens, UniProt Q15139)
Experimental: as §1

[20] = biological target: BRSK1 (Homo sapiens, UniProt Q8TDC3)
Experimental: as §1

[21] = biological target: PKCz (Homo sapiens, UniProt Q05513)
Sequence of PKCz (Q05513 whole entry): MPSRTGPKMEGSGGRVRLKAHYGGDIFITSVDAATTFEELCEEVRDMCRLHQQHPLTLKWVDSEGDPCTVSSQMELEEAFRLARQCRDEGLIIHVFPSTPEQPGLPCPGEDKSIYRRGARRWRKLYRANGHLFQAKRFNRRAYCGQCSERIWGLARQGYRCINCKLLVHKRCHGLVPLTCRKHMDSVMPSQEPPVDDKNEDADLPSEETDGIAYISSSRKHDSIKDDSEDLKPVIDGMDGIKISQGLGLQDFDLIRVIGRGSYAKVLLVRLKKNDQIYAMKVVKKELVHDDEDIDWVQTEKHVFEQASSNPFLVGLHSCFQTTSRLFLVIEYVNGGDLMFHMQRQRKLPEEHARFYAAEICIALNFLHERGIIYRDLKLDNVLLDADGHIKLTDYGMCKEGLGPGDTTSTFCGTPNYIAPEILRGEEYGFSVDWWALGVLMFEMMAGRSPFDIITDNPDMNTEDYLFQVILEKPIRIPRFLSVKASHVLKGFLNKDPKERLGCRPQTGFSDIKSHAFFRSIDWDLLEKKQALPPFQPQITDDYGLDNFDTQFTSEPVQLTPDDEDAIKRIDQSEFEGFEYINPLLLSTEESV
Experimental: as §1

[22] = biological target: MPSK1 (Homo sapiens, UniProt O75716)
Experimental: as §1

[23] = biological target: CDK2-Cyclin A (Homo sapiens, UniProt P24941)
Experimental: as §1

[24] = biological target: GCK (Homo sapiens, UniProt Q12851)
Sequence of GCK (Q12851 whole entry): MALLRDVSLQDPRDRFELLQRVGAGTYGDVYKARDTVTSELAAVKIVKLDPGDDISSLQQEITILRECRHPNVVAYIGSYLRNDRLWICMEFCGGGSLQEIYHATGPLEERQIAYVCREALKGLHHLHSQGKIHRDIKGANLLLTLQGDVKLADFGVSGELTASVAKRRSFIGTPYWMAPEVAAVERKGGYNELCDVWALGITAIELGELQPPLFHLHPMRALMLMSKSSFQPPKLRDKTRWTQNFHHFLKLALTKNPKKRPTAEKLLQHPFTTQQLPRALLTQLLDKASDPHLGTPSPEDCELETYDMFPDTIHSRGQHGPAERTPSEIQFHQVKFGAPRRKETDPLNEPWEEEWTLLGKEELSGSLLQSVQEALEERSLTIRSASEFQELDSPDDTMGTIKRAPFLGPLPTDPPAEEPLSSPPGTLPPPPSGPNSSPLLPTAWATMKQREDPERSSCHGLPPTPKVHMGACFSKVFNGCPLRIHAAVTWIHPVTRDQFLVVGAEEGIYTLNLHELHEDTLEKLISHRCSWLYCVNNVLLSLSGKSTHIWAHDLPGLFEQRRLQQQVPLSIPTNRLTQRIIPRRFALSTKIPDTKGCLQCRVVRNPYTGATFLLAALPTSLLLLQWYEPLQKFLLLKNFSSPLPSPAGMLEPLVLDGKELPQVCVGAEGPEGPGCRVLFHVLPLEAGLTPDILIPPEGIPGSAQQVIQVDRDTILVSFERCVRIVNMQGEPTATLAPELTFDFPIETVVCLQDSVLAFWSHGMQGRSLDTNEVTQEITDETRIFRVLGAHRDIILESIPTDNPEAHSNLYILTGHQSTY
Experimental: as §1

[25] = biological target: MST2 (Homo sapiens, UniProt Q13188)
Sequence of MST2 (Q13188 whole entry, species assumed): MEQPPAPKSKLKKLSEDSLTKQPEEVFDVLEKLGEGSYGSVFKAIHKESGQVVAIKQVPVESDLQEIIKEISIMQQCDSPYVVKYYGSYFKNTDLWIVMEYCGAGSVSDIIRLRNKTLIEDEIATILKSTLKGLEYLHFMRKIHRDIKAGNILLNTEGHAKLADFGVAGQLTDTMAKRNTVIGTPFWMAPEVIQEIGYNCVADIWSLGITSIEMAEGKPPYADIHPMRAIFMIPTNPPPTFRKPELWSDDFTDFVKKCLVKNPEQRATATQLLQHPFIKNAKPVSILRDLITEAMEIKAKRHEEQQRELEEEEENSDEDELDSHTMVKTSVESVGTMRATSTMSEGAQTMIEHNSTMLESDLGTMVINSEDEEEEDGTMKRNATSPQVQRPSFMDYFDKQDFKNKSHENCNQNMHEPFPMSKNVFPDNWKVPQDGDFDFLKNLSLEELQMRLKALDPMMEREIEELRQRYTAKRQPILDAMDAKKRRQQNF
Experimental: as §1

[26] = biological target: MSK1 (Homo sapiens, UniProt O75582)
Sequence of MSK1 (O75582 whole entry, species assumed): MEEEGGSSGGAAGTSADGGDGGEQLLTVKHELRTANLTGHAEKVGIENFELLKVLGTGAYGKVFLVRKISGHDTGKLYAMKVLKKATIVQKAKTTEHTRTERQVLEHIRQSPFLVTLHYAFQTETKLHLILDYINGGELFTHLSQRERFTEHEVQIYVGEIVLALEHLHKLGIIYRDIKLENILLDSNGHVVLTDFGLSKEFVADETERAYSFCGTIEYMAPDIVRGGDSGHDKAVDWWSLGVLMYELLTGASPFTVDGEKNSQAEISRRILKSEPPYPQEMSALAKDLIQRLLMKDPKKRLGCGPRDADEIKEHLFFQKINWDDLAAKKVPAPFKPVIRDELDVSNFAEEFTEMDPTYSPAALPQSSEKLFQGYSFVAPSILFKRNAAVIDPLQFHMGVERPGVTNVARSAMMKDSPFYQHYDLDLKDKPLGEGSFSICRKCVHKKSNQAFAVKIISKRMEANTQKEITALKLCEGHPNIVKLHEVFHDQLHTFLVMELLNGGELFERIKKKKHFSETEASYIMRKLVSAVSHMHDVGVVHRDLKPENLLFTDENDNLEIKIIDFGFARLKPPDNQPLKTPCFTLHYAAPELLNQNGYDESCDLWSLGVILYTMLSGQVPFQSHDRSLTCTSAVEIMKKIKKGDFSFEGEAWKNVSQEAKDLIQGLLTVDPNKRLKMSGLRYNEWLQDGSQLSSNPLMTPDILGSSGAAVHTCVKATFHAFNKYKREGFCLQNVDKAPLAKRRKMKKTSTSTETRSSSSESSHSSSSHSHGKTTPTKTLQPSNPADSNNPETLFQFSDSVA
Experimental: as §1

[27] = biological target: PKBb (Homo sapiens, UniProt P31751)
Experimental: as §1

[28] = biological target: MARK3 (Homo sapiens, UniProt P27448)
Experimental: as §1

[29] = biological target: MKK6 (Homo sapiens, UniProt P52564)
Experimental: as §1

[30] = biological target: NEK2a (Homo sapiens, UniProt P51955)
Experimental: as §1

[31] = biological target: IGF-1R (Homo sapiens, UniProt P08069)
Experimental: as §1

[32] = biological target: PAK5 (Homo sapiens, UniProt Q9P286)
Experimental: as §1

[33] = biological target: Aurora B (Homo sapiens, UniProt Q96GD4)
Experimental: as §1

[34] = biological target: LKB1 (Homo sapiens, UniProt Q15831)
Experimental: as §1

[35] = biological target: PIM3 (Homo sapiens, UniProt Q86V86)
Experimental: as §1

[36] = biological target: PKA (Homo sapiens, UniProt P17612)
Experimental: as §1

[37] = biological target: SYK (Homo sapiens, UniProt P43405)
Experimental: as §1

[38] = biological target: EPH-A2 (Homo sapiens, UniProt P29317)
Experimental: as §1

[39] = biological target: VEG-FR (Homo sapiens, UniProt P17948)
Experimental: as §1

[40] = biological target: MNK2 (Homo sapiens, UniProt Q9HBH9)
Experimental: as §1

[41] = biological target: TrkA (Homo sapiens, UniProt P04629)
Experimental: as §1

CN(C)c1ccc2c(c1)Oc1cc(N(C)C)ccc1C21OC(=O)c2cc(C(=O)NCCCC[C@@H](NC(=O)[C@@H](CCCNC(=N)N)NC(=O)[C@@H](CCCNC(=N)N)NC(=O)[C@@H](CCCNC(=N)N)NC(=O)[C@@H](CCCNC(=N)N)NC(=O)[C@@H](CCCNC(=N)N)NC(=O)[C@@H](CCCNC(=N)N)NC(=O)CCCCCNC(=O)[C@@H](CCCNC(=N)N)NC(=O)CCCCCNC(=O)c3ccc(-c4ccnc(N)n4)s3)C(N)=O)ccc21 [ARC-669]
remaining activity at 1 µM [1]: 74%
remaining activity at 1 µM [2]: 4%
remaining activity at 1 µM [3]: 28%
remaining activity at 1 µM [4]: 27%
remaining activity at 1 µM [5]: 66%
remaining activity at 1 µM [6]: 106%
remaining activity at 1 µM [7]: 32%
remaining activity at 1 µM [8]: 1%
remaining activity at 1 µM [9]: 18%
remaining activity at 1 µM [10]: 74%
remaining activity at 1 µM [11]: 114%
remaining activity at 1 µM [12]: 82%
remaining activity at 1 µM [13]: 77%
remaining activity at 1 µM [14]: 88%
remaining activity at 1 µM [15]: 80%
remaining activity at 1 µM [16]: 101%
remaining activity at 1 µM [17]: 60%
remaining activity at 1 µM [18]: 51%
remaining activity at 1 µM [19]: 37%
remaining activity at 1 µM [20]: 44%
remaining activity at 1 µM [21]: 10%
remaining activity at 1 µM [22]: 97%
remaining activity at 1 µM [23]: 78%
remaining activity at 1 µM [24]: 10%
remaining activity at 1 µM [25]: 94%
remaining activity at 1 µM [26]: 3%
remaining activity at 1 µM [27]: 4%
remaining activity at 1 µM [28]: 20%
remaining activity at 1 µM [29]: 107%
remaining activity at 1 µM [30]: 55%
remaining activity at 1 µM [31]: 38%
remaining activity at 1 µM [32]: 18%
remaining activity at 1 µM [33]: 81%
remaining activity at 1 µM [34]: 101%
remaining activity at 1 µM [35]: 7%
remaining activity at 1 µM [36]: 1%
remaining activity at 1 µM [37]: 73%
remaining activity at 1 µM [38]: 98%
remaining activity at 1 µM [39]: 25%
remaining activity at 1 µM [40]: 76%
remaining activity at 1 µM [41]: 101%
